Measurements taken from patent publication US20260217835A1 (published 2026).
Numbering of substitutions follows the chain as printed. In names and notes the source's numbering stands.

B1: IgG2 full-length heavy chain E356K/D399K/K409E (SEQ ID NO: 98) with light chain SEQ ID NO: 61 (antibody)
heavy: QVQLQESGPGLVRPSQTLSLTCTVSGYSITSDHAWSWVRQPPGRGLEWIGYISYSGITTYNPSLKSRVTMLRDTSKNQFSLRLSSVTAADTAVYYCARSLARTTAMDYWGQGSLVTVSSASTKGPSVFPLAPCSRSTSESTAALGCLVKDYFPEPVTVSWNSGALTSGVHTFPAVLQSSGLYSLSSVVTVPSSNFGTQTYTCNVDHKPSNTKVDKTVERKCCVECPPCPAPPVAGPSVFLFPPKPKDTLMISRTPEVTCVVVDVSHEDPEVQFNWYVDGVEVHNAKTKPREEQFNSTFRVVSVLTVVHQDWLNGKEYKCKVSNKGLPAPIEKTISKTKGQPREPQVYTLPPSRKEMTKNQVSLTCLVKGFYPSDIAVEWESNGQPENNYKTTPPMLKSDGSFFLYSELTVDKSRWQQGNVFSCSVMHEALHNHYTQKSLSLSP
light: not shown
B2: Full-length IgG2 heavy chain SEQ ID NO: 98 (E356K/D399K/K409E) with light chain SEQ ID NO: 61 (antibody)
heavy: B1 heavy
light: not shown
B3: IgG2 full-length heavy chain E356K/K392D/D399K/K439E (SEQ ID NO: 104) with light chain SEQ ID NO: 61 (antibody)
heavy: B1 heavy with K390D, E407K, K437E
light: not shown
notes: also called Sample No. 238
B4: Full-length heavy chain with M428L/N434S (enhance FcRn binding) and Q347R/K360E/D399V/F405T/K409W (SEQ ID NO: 151), with light chain SEQ ID NO: 61 (antibody, human IgG1, kappa)
heavy: QVQLQESGPGLVRPSQTLSLTCTVSGYSITSDHAWSWVRQPPGRGLEWIGYISYSGITTYNPSLKSRVTMLRDTSKNQFSLRLSSVTAADTAVYYCARSLARTTAMDYWGQGSLVTVSSASTKGPSVFPLAPSSKSTSGGTAALGCLVKDYFPEPVTVSWNSGALTSGVHTFPAVLQSSGLYSLSSVVTVPSSSLGTQTYICNVNHKPSNTKVDKRVEPKSCDKTHTCPPCPAPELLGGPSVFLFPPKPKDTLMISRTPEVTCVVVDVSHEDPEVKFNWYVDGVEVHNAKTKPREEQYNSTYRVVSVLTVLHQDWLNGKEYKCKVSNKALPAPIEKTISKAKGQPREPRVYTLPPSREEMTENQVSLTCLVKGFYPSDIAVEWESNGQPENNYKTTPPVLVSDGSFTLYSWLTVDKSRWQQGNVFSCSVLHEALHSHYTQKSLSLSP
light: not shown
B5: Full-length heavy chain with M428L/N434S (enhance FcRn binding) and T366W/L368A/Y407V (SEQ ID NO: 150), with light chain SEQ ID NO: 61 (antibody, human IgG1, kappa)
heavy: B4 heavy with R349Q, E362K, T368W, L370A, V401D, T407F, Y409V, W411K
light: not shown
notes: also called Sample No. 330 full-length heavy chain
B6: Full-length heavy chain with M428L/N434S (enhance FcRn binding) and T394W/F405A (SEQ ID NO: 149), with light chain SEQ ID NO: 61 (antibody, human IgG1, kappa)
heavy: B4 heavy with R349Q, E362K, T396W, V401D, T407A, W411K
light: not shown
B7: Full-length heavy chain with L235R/G236R (suppress FcγR binding) and E356K/K392D/D399K/K439E (SEQ ID NO: 137), with light chain SEQ ID NO: 61 (antibody, human IgG1, kappa)
heavy: QVQLQESGPGLVRPSQTLSLTCTVSGYSITSDHAWSWVRQPPGRGLEWIGYISYSGITTYNPSLKSRVTMLRDTSKNQFSLRLSSVTAADTAVYYCARSLARTTAMDYWGQGSLVTVSSASTKGPSVFPLAPSSKSTSGGTAALGCLVKDYFPEPVTVSWNSGALTSGVHTFPAVLQSSGLYSLSSVVTVPSSSLGTQTYICNVNHKPSNTKVDKRVEPKSCDKTHTCPPCPAPELRRGPSVFLFPPKPKDTLMISRTPEVTCVVVDVSHEDPEVKFNWYVDGVEVHNAKTKPREEQYNSTYRVVSVLTVLHQDWLNGKEYKCKVSNKALPAPIEKTISKAKGQPREPQVYTLPPSRKEMTKNQVSLTCLVKGFYPSDIAVEWESNGQPENNYDTTPPVLKSDGSFFLYSKLTVDKSRWQQGNVFSCSVMHEALHNHYTQESLSLSP
light: not shown
notes: also called Sample No. 317 full-length heavy chain
B8: Full-length heavy chain with L235R/G236R (suppress FcγR binding) and Q347R/K360E/D399V/F405T/K409W (SEQ ID NO: 136), with light chain SEQ ID NO: 61 (antibody, human IgG1, kappa)
heavy: B4 heavy with L237R, G238R, L430M, S436N
light: not shown
B9: Full-length heavy chain with L234A/L235A (suppress FcγR binding) and E356K/K392D/D399K/K439E (SEQ ID NO: 142), with light chain SEQ ID NO: 61 (antibody, human IgG1, kappa, L234A L235A)
heavy: B7 heavy with L236A, R237A, R238G
light: not shown
B10: Full-length heavy chain with L235R/G236R (suppress FcγR binding) and T394W/F405A (SEQ ID NO: 134), with light chain SEQ ID NO: 61 (antibody, human IgG1, kappa)
heavy: B7 heavy with K358E, D394K, T396W, K401D, F407A, E441K
light: not shown

Columns and labels:
[1] = molecular target: T1, IgG2 Fc fragment without modification (SEQ ID NO: 103) (Homo sapiens (Human), UniProt P01859 99-324 = IgG part); assay: co-expression of full-length heavy chain, light chain and Fc fragment in Expi293F, affinity purification, SEC peak area ratio;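 note: purified antibodies analysed by size exclusion chromatography with UV detection at 215 nm, each species given as share of total chromatogram peak area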
T1 construct: Fc fragment co-expressed with a full-length heavy chain and the light chain; the associating unit is one Fc chain; also called WT-IgG2 Fc fragment

[2] = molecular target: T2, IgG1 Fc fragment without modification (SEQ ID NO: 62) (human, UniProt P01857 104-328 = IgG part); assay: as above
T2 construct: Fc fragment below the hinge region, no modification; the associating unit is one Fc chain; also called WT-Fc fragment

[3] = molecular target: T3, IgG2 Fc fragment SEQ ID NO: 103, no modification (Homo sapiens (Human), UniProt P01859 99-324 = IgG part); assay: SEC area ratio after coexpression of heavy chain, light chain and Fc fragment
T3 construct: Pairs with itself (homo Fc fragment) or with a full-length heavy chain (heteromultimer)

[4] = molecular target: the molecule itself; assay: as above
[5] = molecular target: the molecule itself; assay: co-expression of full-length heavy chain, light chain and Fc fragment in Expi293F, affinity purification, SEC peak area ratio;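 note: purified antibodies analysed by size exclusion chromatography with UV detection at 215 nm, each species given as share of total chromatogram peak area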
[6] = molecular target: T4, Fc fragment SEQ ID NO: 597 (coexpressed with the M428L/N434S heavy chains) (Homo sapiens (Human), UniProt P01857 104-328 = IgG part); assay: SEC peak area ratio; full-length heavy chain, light chain and Fc fragment coexpressed in Expi293F, affinity purified
T4 construct: Fc fragment without CH3 interface modification

[7] = molecular target: the molecule itself; assay: as above
[8] = molecular target: T5, Fc fragment SEQ ID NO: 594 (coexpressed with the L235R/G236R heavy chains) (Homo sapiens (Human), UniProt P01857 104-328 = IgG part); assay: as above
T5 construct: Fc fragment without CH3 interface modification

[9] = molecular target: T6, Fc fragment SEQ ID NO: 595 (coexpressed with the L234A/L235A heavy chains) (Homo sapiens (Human), UniProt P01857 104-328 = IgG part); assay: as above
T6 construct: Fc fragment without CH3 interface modification

Row | Binder | Heteromultimer (%) [6] [%] | Homo full-length heavy chain (%) [7] [%] | Heteromultimer (%) [8] [%] | also measured
1 | B1 | – | – | – | Heteromultimer (%) [1]: 8.2%; Heteromultimer (%) [2]: 5.4%
2 | B2 | – | – | – | Heteromultimer (%) [3]: 8.7%; Homo full-length heavy chain (%) [4]: 63.7%
3 | B3 | – | – | – | Heteromultimer (%) [2]: 0%; Homo full-length heavy chain (%) [5]: 50.9%
4 | B4 | 0 | 66.9 | – | –
5 | B5 | 0 | 54.8 | – | –
6 | B6 | 0 | 61 | – | –
7 | B7 | – | 62.2 | 0 | –
8 | B8 | – | 60.2 | 0 | –
9 | B9 | – | 67.9 | – | Heteromultimer (%) [9]: 0%
10 | B10 | – | 64.1 | 0 | –
